Reference: paper PMC10951066, “The self-reactive FVIII T cell repertoire in healthy individuals relies on a short set of epitopes and public clonotypes” (Frontiers in Immunology, 2024)

Legend:
[1] = test system: CD4 T cells from healthy donors; assay: IFN-γ ELISPOT of CD4 T cell lines raised against rFVIII, ovalbumin or KLH (four donors); format: cell-based, human
Text: PBMCs were purified from the whole blood of anonymous healthy donors, who gave informed consent (Etablissement Français du Sang, Rungis, France), using Ficoll-Paque®. Monocyte-derived dendritic cells (DCs) were produced from cells isolated using Percoll gradient by 5 days of culture in AIM-V medium (Invitrogen, Villebon-sur-Yvette, France) supplemented with 1,000 U/ml recombinant human (rh) IL-4 and rhGM-CSF (both from R&D Systems, Lille, France). Mature DCs were produced by two supplementary days of culture in the presence of LPS (1 µg/ml) and R848 (10µg/ml). CD4 T cells were isolated from autologous PBMCs by positive selection using magnetic labeling with anti-CD4 mAbs conjugated to magnetic microbeads followed by magnetic cell sorting, as recommended by the manufacturer (Miltenyi Biotec, Bergisch Gladbach, Germany). Immature DCs were loaded overnight at 37 °C with either 0.2 µM of rFVIII, 0.2 µM of ovalbumin, or 0.25 µM of KLH in 96-well U-bottom plates, while mature DCs were used for FVIII peptides (10 ug/ml). […] 10,000 lymphocytes were collected at day 19 from each T cell line (expanded T cells contained in one well) and their specificity was assessed by using IFN-g ELISPOT.
T cells were incubated with autologous DCs alone (control) or with DCs incubated with rFVIII (0.2 µM), ovalbumin (3 µM), and KLH (1 µM) or PBMCs for FVIII peptides (10 µg/ml) in MultiScreen 96-well plates (Merck Millipore) previously coated with 2.5 µg/mL of anti-human IFN-γ monoclonal antibody (mAb; 1-D1K; Mabtech). […] The spot number was determined by using the ELISPOT Reader System (Autoimmun Diagnostika, Ebinger, Germany). HLA restriction was assessed using monoclonal antibodies (10 μg/ml) specific to HLA-DP (B7/21), HLA-DQ (SPVL3), or HLA-DR (L243).
Firstly, we aimed to characterize the T cell response to rFVIII in vitro using chicken ovalbumin (Ova) as a non-self-protein benchmark. […] Antigen specificity was assessed using the IFN-γ ELISPOT assay. […] The average number per donor of detected clonotypes was 535 and 918, for a total of 2,143 and 3,672 clonotypes detected for FVIII and Ova. […]

[2] = test system: CD4 T cells from healthy donors; assay: CD134/CD137 activation-induced marker flow cytometry of pooled specific T cell lines; format: cell-based, human; conditions: four donors, overnight re-stimulation with antigen-loaded DCs, unstimulated control removed
Experimental: Positive antigen-specific T cell lines determined by using the ELISPOT assay were pooled together at day 21, after 24 h of resting in IMDM medium and with the absence of cytokine stimuli. The pooled T cell lines were re-stimulated overnight with autologous DCs alone (control) or with DCs previously loaded with either 0.2 µM of rFVIII, 0.2 µM of ovalbumin, or 0.25 µM of KLH. Following 24 h of stimulation, cells were harvested in cell staining buffer (phosphate-buffered saline/EDTA 2 mM/bovine serum albumin 0.5%) and then stained for CD4 (Vio-Blue, clone REA623, Miltenyi Biotec) and activation-induced markers CD134 (OX-40) (PE anti-human, clone Ber-ACT35, Biolegend) and CD137 (4-1BB) (APC anti-human, clone 4B4-1, Biolegend). The CD4/CD134/CD137-positive population for each condition was sorted by flow cytometry ([…] III; Becton Dickinson, San Jose, CA, USA).
Firstly, we aimed to characterize the T cell response to rFVIII in vitro using chicken ovalbumin (Ova) as a non-self-protein benchmark. Given the low frequency of FVIII-specific T cells in healthy donors, we enriched the CD4 population in vitro before analyzing their specificity and sorting them for TCR CDR3β sequencing (Figure 1A). […] Antigen specificity was assessed using the IFN-γ ELISPOT assay. […] The average number per donor of detected clonotypes was 535 and 918, for a total of 2,143 and 3,672 clonotypes detected for FVIII and Ova. […]

B1: ovalbumin: chicken ovalbumin, non-self-protein benchmark (protein, UniProt P01012 2-386, looked up)
Ovalbumin: GSIGAASMEFCFDVFKELKVHHANENIFYCPIAIMSALAMVYLGAKDSTRTQINKVVRFDKLPGFGDSIEAQCGTSVNVHSSLRDILNQITKPNDVYSFSLASRLYAEERYPILPEYLQCVKELYRGGLEPINFQTAADQARELINSWVESQTNGIIRNVLQPSSVDSQTAMVLVNAIVFKGLWEKAFKDEDTQAMPFRVTEQESKPVQMMYQIGLFRVASMASEKMKILELPFASGTMSMLVLLPDEVSGLEQLESIINFEKLTEWTSSNVMEERKIKVYLPRMKMEEKYNLTSVLMAMGITDVFSSSANLSGISSAESLKISQAVHAAHAEINEAGREVVGSAEAGVDAASVSEEFRADHPFLFCIKHIATNAVLFFGRCVSP
positive T cell lines ([1]; Donor #1180, positive/tested T cell lines): 13/24 | specific T cell lines ([1]; among 96 T cell lines tested for each antigen, four healthy donors, specific = spot count twofold over control, minimum difference 25 spots): 58 | precursor frequency of antigen-specific CD4 T cells ([1]; four healthy donors, estimated with Poisson distribution): 5 cells/M | mean activation percentage (CD134/CD137 double-positive of total CD4) [2]: 1.25%
